Assays:
[1] = target: HLA-A*02:01 presenting MAGE-A4 286-294 peptide (…) (human); assay: cell-based or functional assay
[2] = target: HLA-A*02:01 presenting MAGE-A4 286-294 peptide (…) (human); assay: cell-based or functional assay; remark: listed apart in the source
[3] = target: T1, HLA-A*02:01 presenting FN1 2182-2190 peptide (…) (human); assay: flow cytometry, peptide-pulsed T2 cells
T1 construct: On peptide-pulsed T2 cells; also called T2 Pulsed FN1 2182-2190

[4] = target: T2, HLA-A*02:01 presenting PSME2 145-153 peptide (…) (human); assay: flow cytometry, peptide-pulsed T2 cells
T2 construct: On peptide-pulsed T2 cells; also called T2 Pulsed PSME2 145-153

[5] = target: T3, HLA-A*02:01 presenting PCDHGC3 337-345 peptide (…) (human); assay: flow cytometry, peptide-pulsed T2 cells
T3 construct: On peptide-pulsed T2 cells; also called T2 Pulsed PCDHGC3 337-345

[6] = target: T4, HLA-A*02:01 presenting SMIM11A 4-12 peptide (…) (human); assay: flow cytometry, peptide-pulsed T2 cells
T4 construct: On peptide-pulsed T2 cells; also called T2 Pulsed SMIM11A 4-12

[7] = target: T5, HLA-A*02:01 presenting RABGAP1L 408-416 peptide (…) (human); assay: flow cytometry, peptide-pulsed T2 cells
T5 construct: On peptide-pulsed T2 cells; also called T2 Pulsed RABGAP1L 408-416

[8] = target: T6, HLA-A*02:01 presenting CNOT1 1965-1973 peptide (…) (human); assay: flow cytometry, peptide-pulsed T2 cells
T6 construct: On peptide-pulsed T2 cells; also called T2 Pulsed CNOT1 1965-1973

[9] = target: T7, HLA-A*02:01 presenting CARD8 170-178 peptide (…) (human); assay: flow cytometry, peptide-pulsed T2 cells
T7 construct: On peptide-pulsed T2 cells; also called T2 Pulsed CARD8 170-178

[10] = target: T8, HLA-A*02:01 presenting MRPL37 334-342 peptide (…) (human); assay: flow cytometry, peptide-pulsed T2 cells
T8 construct: On peptide-pulsed T2 cells; also called T2 Pulsed MRPL37 334-342

[11] = target: T9, HLA-A*02:01 presenting PLEKHH2 790-798 peptide (…) (human); assay: flow cytometry, peptide-pulsed T2 cells
T9 construct: On peptide-pulsed T2 cells; also called T2 Pulsed PLEKHH2 790-798

[12] = target: T10, HLA-A*02:01 presenting NBAS 2063-2071 peptide (…) (human); assay: flow cytometry, peptide-pulsed T2 cells
T10 construct: On peptide-pulsed T2 cells; also called T2 Pulsed NBAS 2063-2071

[13] = target: T11, HLA-A*02:01 presenting TEP1 2156-2164 peptide (…) (human); assay: flow cytometry, peptide-pulsed T2 cells
T11 construct: On peptide-pulsed T2 cells; also called T2 Pulsed TEP1 2156-2164

[14] = target: T12, HLA-A*02:01 presenting HEATR5A 1925-1933 peptide (…) (human); assay: flow cytometry, peptide-pulsed T2 cells
T12 construct: On peptide-pulsed T2 cells

Fold Activation, NF-κB luciferase, Jurkat/NF-κB Luc + IM-9 [1]: 1.8 fold
Fold Activation, NF-κB luciferase, Jurkat/NF-κB Luc + U266 [1]: 0.9 fold
Fold Activation, NF-κB luciferase, Jurkat + IM-9, with 2 nM mAb5705 (anti-CD28) [2]: 1.1 fold
Fold Activation, NF-κB luciferase, Jurkat + U266, with 2 nM mAb5705 (anti-CD28) [2]: 0.9 fold
binding result [3]: no binding
binding result [4]: no binding
binding result [5]: no binding
binding result [6]: no binding
binding result [7]: no binding
binding result [8]: no binding
binding result [9]: no binding
binding result [10]: no binding
binding result [11]: no binding
binding result [12]: no binding
binding result [13]: no binding
binding result [14]: no binding
B1: bsAb6043 (bispecific antibody, V domains shown)
VH 1: QVQLVESGGGLVKPGGSLRLSCAASGFTFSEYYLTWIRQAPGKGLDWIAYISSSGYNIYYADSVKDRFTISRDNGKNSLFLQMNNLRAEDTAVYFCAREGVTDGMDVWGQGTTVTVSS
VH 2: EVQLVESGGGLVQPGRSLRLSCAASGFTFDDYSMHWVRQAPGKGLEWVSGISWNSGSKGYADSVKGRFTISRDNAKNSLYLQMNSLRAEDTALYYCAKYGSGYGKFYHYGLDVWGQGTTVTVSS
VL: DIQMTQSPSSLSASVGDRVTITCRASQSIDTFLNWYQQKPGKVPKLLIYAASNLESGVPSRFSGSGSGTVFTLTISRLQPEDFATYYCQQSYSIPPITFGQGTRVEIK
notes: Only variable regions are tied to the bispecific; also called MAGE-A4×CD3 (7221G) bispecific antibody

Source: patent US20240226163A1 (Regeneron, published 2024)
